Target: cytoplasmic dynein intermediate chain (Xenopus laevis (endogenous in egg extract))
Assay: co-IP

interphase/metaphase ratio of the amount brought down: 1.08
Substance: cytoplasmic dynein heavy chain (natural protein)

From publication PMC2120815
